{
  "source": "paper PMC7059380",
  "about": "“In vivo visualization of the i-motif DNA secondary structure in the Bombyx mori testis”",
  "key": {"BmILF [1]": {"biological_target": "T1, BmILF (Bombyx mori, UniProt A0A1U9WZ16 1-382)", "T1 sequence": "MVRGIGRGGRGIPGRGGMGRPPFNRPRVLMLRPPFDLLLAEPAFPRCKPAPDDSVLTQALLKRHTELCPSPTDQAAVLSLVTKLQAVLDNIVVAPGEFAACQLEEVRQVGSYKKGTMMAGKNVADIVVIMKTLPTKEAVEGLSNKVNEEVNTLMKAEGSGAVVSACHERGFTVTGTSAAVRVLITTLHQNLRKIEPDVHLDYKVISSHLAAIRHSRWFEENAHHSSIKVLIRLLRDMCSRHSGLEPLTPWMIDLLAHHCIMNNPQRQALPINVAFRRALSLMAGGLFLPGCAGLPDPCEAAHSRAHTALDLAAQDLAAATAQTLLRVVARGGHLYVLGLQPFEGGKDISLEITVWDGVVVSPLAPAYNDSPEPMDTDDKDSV", "assay": "EMSA; Hill fit; EMSA: 20 ul, 2.5% glycerol, 0.05% NP-40, 5 mM MgCl2, 4 mM EDTA, RT 20 min; probes folded in 50 mM Tris-TAE pH 4.0 (also 6.0, 8.0). MST: NanoTemper buffer with 100 mM Tris pH 6.0, 2.93-6000 nM BmILF, 25 C", "conditions": "protein: recombinant; label: 5' biotin; i-motif (folded by slow cooling at acidic pH)"}, "BmILF [2]": {"biological_target": "T1, BmILF", "assay": "EMSA; pH 4.0; EMSA: 20 ul, 2.5% glycerol, 0.05% NP-40, 5 mM MgCl2, 4 mM EDTA, RT 20 min; probes folded in 50 mM Tris-TAE pH 4.0 (also 6.0, 8.0). MST: NanoTemper buffer with 100 mM Tris pH 6.0, 2.93-6000 nM BmILF, 25 C", "conditions": "protein: recombinant; label: 5' biotin; no i-motif by CD"}, "BmILF [3]": {"biological_target": "T1, BmILF", "assay": "EMSA; EMSA: 20 ul, 2.5% glycerol, 0.05% NP-40, 5 mM MgCl2, 4 mM EDTA, RT 20 min; probes folded in 50 mM Tris-TAE pH 4.0 (also 6.0, 8.0). MST: NanoTemper buffer with 100 mM Tris pH 6.0, 2.93-6000 nM BmILF, 25 C", "conditions": "protein: recombinant, label: 5' biotin"}, "BmILF [4]": {"biological_target": "T1, BmILF", "assay": "MST; pH 6.0, 50 nM probe; EMSA: 20 ul, 2.5% glycerol, 0.05% NP-40, 5 mM MgCl2, 4 mM EDTA, RT 20 min; probes folded in 50 mM Tris-TAE pH 4.0 (also 6.0, 8.0). MST: NanoTemper buffer with 100 mM Tris pH 6.0, 2.93-6000 nM BmILF, 25 C", "conditions": "protein: recombinant; label: Cy5; i-motif (folded at pH 4.0)"}},
  "data": [
    {"binder": "TTGTTGCCCCGCCCCTCGGCCCCCTCGCGCCCCGCACTGG (structured_DNA)", "note": "[BmPOUM2-WT i-motif (EMSA)]", "values": [
      {"measurement": "Kd", "setting": "BmILF [1]", "result": 119, "unit": "nM"}
    ]},
    {"binder": "CCCCGCGCCCCCCGCGTCCCCCGCACCCCC (structured_DNA)", "note": "[BGIBMGA003213-WT i-motif (EMSA)]", "values": [
      {"measurement": "Kd", "setting": "BmILF [1]", "result": 78, "unit": "nM"}
    ]},
    {"binder": "TTGTTGTACTGCTACTCGGATCACTCGAGCATCGTACTGG (ssDNA)", "note": "[BmPOUM2-Mut]", "values": [
      {"measurement": "binding result", "setting": "BmILF [2]", "result": "no binding"}
    ]},
    {"binder": "CATTGCGATATCAGCGTTATCAGTATCAAT (ssDNA)", "note": "[BGIBMGA003213-Mut]", "values": [
      {"measurement": "binding result", "setting": "BmILF [2]", "result": "no binding"}
    ]},
    {"binder": "CCAGTGCGGGGCGCGAGGGGGCCGAGGGGCGGGGCAACAA (structured_DNA)", "note": "[BmPOUM2-G4]", "values": [
      {"measurement": "binding result", "setting": "BmILF [3]; G4", "result": "no binding"}
    ]},
    {"binder": "GGGGGTGCGGGGGACGCGGGGGGCGCGGGG (structured_DNA)", "note": "[BGIBMGA003213-G4]", "values": [
      {"measurement": "binding result", "setting": "BmILF [3]; G4", "result": "no binding"}
    ]},
    {"binder": "TTGTTGCCCCGCCCCTCGGCCCCCTCGCGCCCCGCACTGG (structured_DNA)", "note": "[BmPOUM2-WT i-motif (MST)]", "values": [
      {"measurement": "Kd", "setting": "BmILF [4]", "result": 430, "unit": "nM"}
    ]},
    {"binder": "CAGTGGCGGCCATCCGTTTAATATTACCGGATGGCCGCGCGAT (structured_DNA)", "note": "[Hairpin]", "values": [
      {"measurement": "binding result", "setting": "BmILF [3]; hairpin", "result": "no binding"}
    ]},
    {"binder": "CCCCGCGCCCCCCGCGTCCCCCGCACCCCC (structured_DNA)", "note": "[BGIBMGA003213-WT i-motif (MST)]", "values": [
      {"measurement": "Kd", "setting": "BmILF [4]", "result": 367, "unit": "nM"}
    ]}
  ]
}
